{
  "source": "patent US20230355537A1",
  "about": "“PROMOTING TRAINED IMMUNITY WITH THERAPEUTIC NANOBIOLOGIC COMPOSITIONS” (Icahn School of Medicine at Mount Sinai, priority 2017, published 2023)",
  "origin": "cited, not measured here",
  "key": {"[1]": {"target": "T1, PD-1 (Homo sapiens, UniProt Q15116)", "T1 construct": "A phase II clinical trial in subjects with diffuse large B-cell lymphoma (DLBCL); host or cells: human trial subjects (endogenous PD-1 on their immune cells)", "T1 sequence (Q15116 25-288)": "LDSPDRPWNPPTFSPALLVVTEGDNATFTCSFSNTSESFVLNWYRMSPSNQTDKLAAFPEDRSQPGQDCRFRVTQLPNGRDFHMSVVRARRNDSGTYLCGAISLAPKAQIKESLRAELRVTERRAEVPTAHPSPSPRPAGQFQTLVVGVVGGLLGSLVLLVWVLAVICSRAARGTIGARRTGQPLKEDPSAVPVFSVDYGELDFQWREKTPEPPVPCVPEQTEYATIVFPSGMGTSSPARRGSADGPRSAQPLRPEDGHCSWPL"}, "[2]": {"target": "T2, PD-L1 (Homo sapiens, UniProt Q9NZQ7)", "T2 construct": "in subjects with advanced-stage NSCLC, melanoma, RCC, or ovarian cancer; host or cells: human trial subjects (endogenous PD-L1 on tumour and immune cells)", "T2 sequence (Q9NZQ7 19-290)": "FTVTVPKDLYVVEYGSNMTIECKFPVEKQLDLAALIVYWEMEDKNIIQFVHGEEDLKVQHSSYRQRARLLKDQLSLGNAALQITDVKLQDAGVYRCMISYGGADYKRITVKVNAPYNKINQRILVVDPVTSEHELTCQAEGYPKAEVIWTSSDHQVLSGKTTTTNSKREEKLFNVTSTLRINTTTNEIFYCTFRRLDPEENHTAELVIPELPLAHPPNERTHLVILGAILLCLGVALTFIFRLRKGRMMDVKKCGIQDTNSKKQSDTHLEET", "settings": "in vivo"}},
  "data": [
    {"substance": "CT-011: humanized IgGl monoclonal antibody against PD-I", "values": [
      {"measurement": "subjects alive", "setting": "[1]; DLBCL, preliminary results", "result": 82, "unit": "%"},
      {"measurement": "subjects progression-free at the end of the follow-up period", "setting": "[1]; DLBCL, preliminary results", "result": 70, "unit": "%"},
      {"measurement": "activity of natural killer cells", "setting": "[1]; in vivo", "result": "augments"}
    ]},
    {"substance": "Medi 4736: anti-PD-LI antibody", "values": [
      {"measurement": "clinical activity", "setting": "[2]", "result": "durable clinical activity"}
    ]}
  ]
}
